The target of the experiment is ezrin FERM domain (residues 1–298), untagged (UniProt P15311 1-298). The experiment in a line: pull-down.
Chain of ezrin FERM domain (residues 1–298), untagged (P15311 1-298): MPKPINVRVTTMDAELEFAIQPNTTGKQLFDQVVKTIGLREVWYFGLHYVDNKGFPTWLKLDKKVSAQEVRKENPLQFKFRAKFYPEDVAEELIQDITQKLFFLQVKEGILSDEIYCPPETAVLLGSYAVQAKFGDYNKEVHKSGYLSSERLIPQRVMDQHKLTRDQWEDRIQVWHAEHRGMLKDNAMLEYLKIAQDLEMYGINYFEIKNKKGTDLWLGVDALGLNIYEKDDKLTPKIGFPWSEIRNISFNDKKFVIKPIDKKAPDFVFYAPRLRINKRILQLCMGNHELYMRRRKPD

B1: SUMO-tagged EBP50 (natural protein, human, UniProt O14745 1-358, looked up)
chain: MSADAAAGAPLPRLCCLEKGPNGYGFHLHGEKGKLGQYIRLVEPGSPAEKAGLLAGDRLVEVNGENVEKETHQQVVSRIRAALNAVRLLVVDPETDEQLQKLGVQVREELLRAQEAPGQAEPPAAAEVQGAGNENEPREADKSHPEQRELRPRLCTMKKGPSGYGFNLHSDKSKPGQFIRSVDPDSPAEASGLRAQDRIVEVNGVCMEGKQHGDVVSAIRAGGDETKLLVVDRETDEFFKKCRVIPSQEHLNGPLPVPFTNGEIQKENSREALAEAALESPRPALVRSASSDTSEELNSQDSPPKQDSTAPSSTSSSDPILDFNISLAMAKERAHQKRSSKRAPQMDWSKKNELFSNL
Take B1: the “half-life of dissociation from ezrin FERM beads” value is ~10 min.

B2: SUMO-tagged E3KARP (natural protein, human, UniProt Q15599 1-337, looked up)
chain: MAAPEPLRPRLCRLVRGEQGYGFHLHGEKGRRGQFIRRVEPGSPAEAAALRAGDRLVEVNGVNVEGETHHQVVQRIKAVEGQTRLLVVDQETDEELRRRQLTCTEEMAQRGLPPAHDPWEPKPDWAHTGSHSSEAGKKDVSGPLRELRPRLCHLRKGPQGYGFNLHSDKSRPGQYIRSVDPGSPAARSGLRAQDRLIEVNGQNVEGLRHAEVVASIKAREDEARLLVVDPETDEHFKRLRVTPTEEHVEGPLPSPVTNGTSPAQLNGGSACSSRSDLPGSDKDTEDGSAWKQDPFQESGLHLSPTAAEAKEKARAMRVNKRAPQMDWNRKREIFSNF
Regarding B2, the “half-life of dissociation from ezrin FERM beads” value was ~16 min.

The values above are taken from paper PMC3814156 (Molecular Biology of the Cell, 2013).
